Biological target: streptavidin (UniProt P22629 25-183)
Assay: plate binding assay, liposome SRB fluorescence; at least 10-fold over aptamer-free liposomes; displaced by biotin; Streptavidin (10 ug/ml) coated plate, blocked with 1% BSA and 0.01 mg/ml salmon sperm DNA in TBS; 80 ul liposomal aptamer 1 h at RT; washes in TBS-sucrose; pH and salt not given
Conditions: protein: commercial; chain copies: 4; label: SRB-encapsulating liposome

Sequence of streptavidin (P22629 25-183): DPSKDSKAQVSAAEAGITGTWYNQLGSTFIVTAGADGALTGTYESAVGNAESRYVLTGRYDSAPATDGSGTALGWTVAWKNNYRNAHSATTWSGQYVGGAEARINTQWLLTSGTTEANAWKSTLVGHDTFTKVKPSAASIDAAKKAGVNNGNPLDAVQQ

ATTGACCGCTGTGTGACGCAACACTCAAT (structured_DNA, 3'-TEG-cholesterol) [ST-21 liposomal aptamer]
binding result: binds

ATTGACCTCTGTGTGACGCAACACTCAAT (structured_DNA, 3'-TEG-cholesterol) [ST-21M liposomal aptamer]
binding result: binds

Source: paper PMC4763257, “A replaceable liposomal aptamer for the ultrasensitive and rapid detection of biotin”
